Patent US7053185B1, “Lactalbumin production process” (HAMLET Pharma AB, priority 1997, dated 2006)

What was measured:
tumour cell lines [1] = test: Tumour cell line viability, vital dye (trypan blue); format: cell-based; conditions: for activity compared with protein isolated from human milk casein: tumour cell lines
Procedure: The two peaks which are believed to contain MAL were kept separately and tested individually. Testing was carried out as described hereinafter in Example 4. Representative results are set out in Table 1.
(§1) The biological efficacy of the products obtained in the above Examples 1 and 2 above was tested using tumour cell lines as described in Hakansson et al (1995) supra. Cell lines were incubated with samples of the products at various concentrations in cell culture media at 37° C. for various time points. After incubation, the cells are harvested and the cell viability determined using a vital dye (trypan blue).

tumour cell lines [2] = test: Apoptosis: oligonucleosome length DNA fragments by agarose gel electrophoresis; format: cell-based; conditions: material eluting at MAL position (1 M NaCl)
Procedure: as §1
(§2) Oligonucleosome length DNA fragments were detected by agarose gel electrophoresis. Cells (2×10^6) were lysed in 5 mM Tris, 20 mM EDTA, 0.5% Triton X-100 pH 8.0 at 4° C. for 1 hour and centrifuged at 13,000×g for 15 minutes. DNA was ethanol precipitated overnight in −20° C., treated with proteinase K and RNAse, loaded on 1.8% agarose gels and electrophoresed with constant voltage set at 50V overnight. DNA fragments were visualized with ethidium bromide using a 305 nm UV-light source and photographed using Polaroid type 55 positive-negative film.

L1210 cells = test: Apoptosis-inducing activity / DNA fragmentation in L1210 cells; format: cell-based; conditions: 0.7 mg/ml
Procedure: as §2
The lipid concentration was defined in “MAL equivalents” as the amount extracted from a defined mass of MAL. […] However, lipids from 0.5 or 1 mg of MAL had no effect on cell viability or DNA fragmentation. […] MAL lipids were not active at concentrations when intact MAL killed the cells.

[3] = tested on: cancer cells and immature cells; conditions: cancer cells and immature cells versus healthy cells; cited from earlier work

## Commercial bovine α-lactalbumin, untreated, MAL Peak 1: first MAL peak from commercial (Sigma) bovine α-lactalbumin run on casein trained column
Tumour cell lines [1]; Dosage 0.3 mg/ml
  Viability of tumour cells: 50%
Tumour cell lines [1]; Dosage 0.5 mg/ml
  Viability of tumour cells: 0%

## Commercial bovine α-lactalbumin, untreated, MAL Peak 2: second MAL peak from commercial (Sigma) bovine α-lactalbumin run on casein trained column
Tumour cell lines [1]; Dosage 0.5 mg/ml
  Viability of tumour cells: 98%
Tumour cell lines [1]; Dosage 1.0 mg/ml
  Viability of tumour cells: 98%

B1: Native, monomeric α-lactalbumin: native human milk α-lactalbumin converted to multimeric form on casein conditioned column, eluting at MAL position (protein, UniProt P00709 20-142, looked up)
Alpha-lactalbumin: KQFTKCELSQLLKDIDGYGGIALPELICTMFHTSGYDTQAIVENNESTEYGLFQISNKLWCKSSQVPQSRNICDISCDKFLDDDITDDIMCAKKILDIKGIDYWLAHKALCTEKLEQWLCEKL
modifications: multimeric form
notes: native human milk α-lactalbumin converted to multimeric form on casein conditioned column, eluting at MAL position
Tumour cell lines [2]
  apoptosis-inducing / biological activity of converted material: no apoptosis-inducing activity

B2: Human α-lactalbumin+, Untreated, MAL Peak 1: first peak from human milk α-lactalbumin (ammonium sulphate precipitation), untreated, casein trained column (protein, UniProt P00709 20-142, looked up)
Alpha-lactalbumin: B1 Alpha-lactalbumin
modifications: multimeric form
notes: first peak from human milk α-lactalbumin (ammonium sulphate precipitation), untreated, casein trained column
Tumour cell lines [1]; Dosage 1.0 mg/ml
  Viability of tumour cells: 79%

B3: α-lactalbumin treated with EDTA: EDTA treated α-lactalbumin completely converted to oligomeric form on casein conditioned column (protein, UniProt P00709 20-142, looked up)
Alpha-lactalbumin: B1 Alpha-lactalbumin
modifications: oligomeric form
notes: EDTA treated α-lactalbumin completely converted to oligomeric form on casein conditioned column
Tumour cell lines [2]
  apoptosis-inducing / biological activity of converted material: significant biological activity

B4: Human α-lactalbumin+, Untreated, MAL Peak 2: second peak from human milk α-lactalbumin (ammonium sulphate precipitation), untreated, casein trained column (protein, UniProt P00709 20-142, looked up)
Alpha-lactalbumin: B1 Alpha-lactalbumin
modifications: multimeric form
notes: second peak from human milk α-lactalbumin (ammonium sulphate precipitation), untreated, casein trained column
Tumour cell lines [1]; Dosage 1.0 mg/ml
  Viability of tumour cells: 95%

B5: Commercial human α-lactalbumin, Untreated, MAL Peak 2: second MAL peak from commercial (Sigma) human α-lactalbumin run on casein trained column (protein, UniProt P00709 20-142, looked up)
Alpha-lactalbumin: B1 Alpha-lactalbumin
modifications: multimeric form
notes: second MAL peak from commercial (Sigma) human α-lactalbumin run on casein trained column
Tumour cell lines [1]; Dosage 1.0 mg/ml
  Viability of tumour cells: 0%

B6: Human α-lactalbumin+, EDTA pre-treatment + EDTA buffer, MAL Peak 2: second peak from EDTA treated human milk α-lactalbumin run with EDTA buffers on casein trained column (protein, UniProt P00709 20-142, looked up)
Alpha-lactalbumin: B1 Alpha-lactalbumin
modifications: multimeric form
notes: second peak from EDTA treated human milk α-lactalbumin run with EDTA buffers on casein trained column
Tumour cell lines [1]; Dosage 0.5 mg/ml
  Viability of tumour cells: 89%
Tumour cell lines [1]; Dosage 1.0 mg/ml
  Viability of tumour cells: 0%

B7: Human α-lactalbumin+, EDTA pre-treated, MAL Peak 2: second peak from EDTA pre-treated human milk α-lactalbumin, casein trained column (protein, UniProt P00709 20-142, looked up)
Alpha-lactalbumin: B1 Alpha-lactalbumin
modifications: multimeric form
notes: second peak from EDTA pre-treated human milk α-lactalbumin, casein trained column
Tumour cell lines [1]; Dosage ca. 1.5 mg/ml
  Viability of tumour cells: 98%

B8: Example 1: multimeric product from commercial monomeric human α-lactalbumin on matrix pre-run with human milk casein (protein, UniProt P00709 20-142, looked up)
Alpha-lactalbumin: B1 Alpha-lactalbumin
modifications: multimeric form
notes: multimeric product from commercial monomeric human α-lactalbumin on matrix pre-run with human milk casein
Tumour cell lines [1]
  activity compared with protein isolated from human milk casein: similar

B9: Commercial human α-lactalbumin, Untreated, MAL Peak 1: first MAL peak from commercial (Sigma) human α-lactalbumin run on casein trained column (protein, UniProt P00709 20-142, looked up)
Alpha-lactalbumin: B1 Alpha-lactalbumin
modifications: multimeric form
notes: first MAL peak from commercial (Sigma) human α-lactalbumin run on casein trained column
Tumour cell lines [1]; Dosage 0.5 mg/ml
  Viability of tumour cells: 0%
Tumour cell lines [1]; Dosage 1.0 mg/ml
  Viability of tumour cells: 0%

B10: MAL: oligomeric complex of α-lactalbumin in molten globule-like state, from human milk casein by ion exchange, eluting at 1M NaCl (protein, UniProt P00709 20-142, looked up)
Alpha-lactalbumin: B1 Alpha-lactalbumin
modifications: oligomeric molten globule form
notes: oligomeric complex of α-lactalbumin in molten globule-like state, from human milk casein by ion exchange, eluting at 1M NaCl
L1210 cells
  apoptosis induction (reduction of cell viability, DNA fragments): induced apoptosis
[3]
  apoptotic cell death: induces apoptotic cell death in cancer cells and immature cells, but not in healthy cells

B11: monomeric α-lactalbumin in the molten globule-like state: converted on clean matrix conditioned with lipids extracted from casein conditioned column; single peak at MAL position (protein, UniProt P00709 20-142, looked up)
Alpha-lactalbumin: B1 Alpha-lactalbumin
modifications: molten globule form
notes: converted on clean matrix conditioned with lipids extracted from casein conditioned column; single peak at MAL position
Tumour cell lines [2]
  apoptosis-inducing / biological activity of converted material: apoptosis-inducing activity

B12: Human α-lactalbumin+, EDTA pre-treated, MAL Peak 1: first peak from EDTA pre-treated human milk α-lactalbumin, casein trained column (protein, UniProt P00709 20-142, looked up)
Alpha-lactalbumin: B1 Alpha-lactalbumin
modifications: multimeric form
notes: first peak from EDTA pre-treated human milk α-lactalbumin, casein trained column
Tumour cell lines [1]; Dosage 1.0 mg/ml
  Viability of tumour cells: 0%

B13: Human α-lactalbumin+, EDTA pre-treatment + EDTA buffer, MAL Peak 1: first peak from EDTA treated human milk α-lactalbumin run with EDTA buffers on casein trained column (protein, UniProt P00709 20-142, looked up)
Alpha-lactalbumin: B1 Alpha-lactalbumin
modifications: multimeric form
notes: first peak from EDTA treated human milk α-lactalbumin run with EDTA buffers on casein trained column
Tumour cell lines [1]; Dosage 0.5 mg/ml
  Viability of tumour cells: 0%
Tumour cell lines [1]; Dosage 1.0 mg/ml
  Viability of tumour cells: 0%

B14: 2: multimeric product from monomeric bovine α-lactalbumin on matrix pre-run with human milk casein (protein, UniProt P00711 20-142, looked up)
Alpha-lactalbumin: EQLTKCEVFRELKDLKGYGGVSLPEWVCTTFHTSGYDTQAIVQNNDSTEYGLFQINNKIWCKDDQNPHSSNICNISCDKFLDDDLTDDIMCVKKILDKVGINYWLAHKALCSEKLDQWLCEKL
modifications: multimeric form
notes: multimeric product from monomeric bovine α-lactalbumin on matrix pre-run with human milk casein
Tumour cell lines [1]
  activity compared with protein isolated from human milk casein: similar
